Reference: patent US11858974 (RESQ BIOTECH, dated 2024)

Molecular target: T1, SOD1(A4V), Ala4Val variant of human Cu/Zn superoxide dismutase 1 (human, UniProt P00441 2-154, A4V)
T1 construct: Isolated from E. coli Origami 2(DE3) (pETSOD1(A4V) or pASK-SOD1 vectors); also called isolated SOD1(A4V); mutant SOD1
Assay: CD spectroscopy of isolated SOD1(A4V) incubated with synthetic cyclic peptide
Procedure: Appropriate amounts of synthetic cyclic peptides were added to either 40 µM SOD1(A4V) or 50 µM Aβ solutions at the desired cyclic peptide:target protein molar ratio. SOD1(A4V) structural changes were monitored for 90 d at 25° C., under quiescent conditions. Aβ structural changes were monitored for 30 d at 33° C. under quiescent conditions. CD spectra in the range 190-260 nm were recorded on a JASCO J-715 spectropolarimeter (Jasco Co., Japan) using quartz cuvettes with 1 mm path length. Each reported spectrum is the average of three scans at a rate of 100 nm·min^-1 and a resolution of 0.5 nm.

T1 sequence (P00441 2-154 A5V): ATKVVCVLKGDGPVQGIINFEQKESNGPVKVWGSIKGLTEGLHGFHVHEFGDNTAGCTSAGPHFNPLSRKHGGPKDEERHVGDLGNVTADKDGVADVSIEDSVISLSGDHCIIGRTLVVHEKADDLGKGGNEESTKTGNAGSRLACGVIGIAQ

| binding result | Binder |
| --- | --- |
| no binding | SASPT (head-to-tail cyclic peptide (cyclo-SASPT), no free termini, Made by solid-phase synthesis (Genscript); also called Aβ-targeting cyclic 5-peptide number 34) [AβC5-34 (cyclo-SASPT)] |
| binds | TWSVW (head-to-tail cyclic peptide (cyclo-TWSVW), no free termini, Made by solid-phase synthesis (CPC Scientific); Backbone-cyclised pentapeptide; also called SODC5-4; selected cyclic pentapeptide SOD1C5-4) [SOD1C5-4 (cyclo-TWSVW)] |
| no binding | TAFDR (head-to-tail cyclic peptide (cyclo-TAFDR), no free termini, Made by solid-phase synthesis (Genscript)) [AβC5-116 (cyclo-TAFDR)] |
